Residue numbers refer to the chain shown, from its start. Blank lines part the entries; values can stand above or below the binder they belong to.
Experiments:
[1] = biological target: T1, mCS1-His (Mus musculus, strain , UniProt Q8BHK6)
[2] = biological target: T1, mCS1-His; assay: SPR

T1 sequence (Q8BHK6 23-333): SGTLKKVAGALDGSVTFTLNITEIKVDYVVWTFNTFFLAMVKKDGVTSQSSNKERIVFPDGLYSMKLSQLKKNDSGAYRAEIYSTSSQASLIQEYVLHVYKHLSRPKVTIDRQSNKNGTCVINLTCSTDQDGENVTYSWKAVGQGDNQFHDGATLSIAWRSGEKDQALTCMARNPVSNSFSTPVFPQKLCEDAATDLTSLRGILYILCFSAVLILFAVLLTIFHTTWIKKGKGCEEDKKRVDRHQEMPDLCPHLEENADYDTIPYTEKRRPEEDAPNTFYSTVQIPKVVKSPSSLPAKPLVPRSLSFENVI

binding result [1]: binds
B1: sdAb2 (VHH)
VHH: QVQLQESGGGLVQPGGSLKLSCAASGSIASIYAMGWYRQAPGKQRELVATISSDGSTNYADSVKGRFTISRNNTDNTVCLQMNSLKPEDTALYTCITEQFLGDHTLRDWGQGTQVTVSS

binding result [1]: binds
B2: sdAb9 (VHH)
VHH: QVQLQESGGGLVQPGGSLRLSCAASGSIFSILSMGWYRQAPGKQRELVASITNGGSTNYADSVKGRFTIFRDNAKNTVDLQMNSLKPEDTAVYYCNARPPRADLWGQGTQVTVSS

binding result [1]: binds
B3: sdAb5 (VHH)
VHH: QVQLQESGGGLVQPGGSLRLSCAVSRSIFSFYAMGWYRQAPGKERELVARIISGGSTNYADSVKGRFTIARDNAKNTVYLQMNSLKPEDTAVYYCVAEQFLNDFTLRDWGQGTQVTVSS

Kd [2]: 25 nM
B4: anti-mCS1 sdAb1, untagged (VHH)
VHH: QVQLQESGGGLVQPGGSLRLSCAASGFTFSSTAMSWARQAPGKGLEWVSSIYSDGSTSYADSMKGRSTISRDNAKNTVYLQMNSLKPEDTAVYYCAIGDTGWGRVGQGTQVTVSS

binding result [1]: binds
B5: sdAb6 (VHH)
VHH: QVQLQESGGGLVQPGGSLRLSCAASGSIFSILAMGWYRQAPGKQRELVASVTNGGSTNYADSVKGRFTISRDNAKNTVYLQMNSLKPEDTAVYYCNVRPYSDYDSWGHGTQVTVSS

binding result [1]: binds
B6: sdAb8 (VHH)
VHH: B5 VHH with S62F, A74V, S105Y, H108Q

binding result [1]: binds
B7: sdAb7 (VHH)
VHH: B5 VHH with H108Q

binding result [1]: binds
B8: sdAb10 (VHH)
VHH: QVQLQESGGGLVQPGGSLRLSCAASGSIFSIYAMGWYRQAPGKQRELVAGITSGGSTHYADSVKGRFTISRDNAKNSVYLQMNSLKPEDTAVYYCNSDLDPPSGTYYPALWSWGQGTQVTVSS

binding result [1]: binds
B9: sdAb3 (VHH)
VHH: QVQLQESGGGLVQPGGSLRLSCAASGSIFSIYAMDWYRQAPGKQRELVARITSDGSTNYADSVKGRFTISRDNAKNAVYLQMNSLKPEDTAVYYCVAEQSLGEHTLRDWGQGTQVTVSS

binding result [1]: binds
B10: sdAb4 (VHH)
VHH: B9 VHH with L11F, I31V, D35G, R50A, S53R, D54G, T57A

— PMC8583167 (Oncoimmunology, 2021)
